Ki data for 13 molecules are collected here from patent US20230265151A1, “GIP/GLP1 CO-AGONIST COMPOUNDS” (priority 2020, published 2023).

*1 amine or outer side, *2 acyl side, *3 side chain or, on linkers, in order; H or OH if unused. Where no end group is shown, it is not given here. Side-chain parts run from the residue outwards. [ ]: non-standard residue; d: D form. The star is where a group is joined. αMePhe(2-F) = C[C@](N)(Cc1ccccc1F)C(=O)O; γGlu = O=C(O)[C@H](CCC(=O)[*:2])N[*:1]; C14 diacid = O=C(O)CCCCCCCCCCCCC(=O)*; αMeY = C[C@](N)(Cc1ccc(O)cc1)C(=O)O; αMeL = CC(C)C[C@](C)(N)C(=O)O; Orn = NCCC[C@H](N)C(=O)O; AEEA = NCCOCCOCC(=O)O; Aib = CC(C)(N)C(=O)O

One assay addresses T1, human GLP-1 receptor (human, UniProt P43220 24-463).
T1 construct: whole, on cells; also called hGLP-1R; human glucagon-like peptide-1 receptor
The experiment in a line: SPA competition vs [125I]-GLP-1, hGLP-1R membranes. The procedure: The binding buffer contains 25 mM HEPES, pH 7.4, 2.5 mM CaCl₂, 1 mM MgCl₂, 0.1% (w/v) bacitracin, 0.003% (w/v) TWEEN®-20, and Roche Complete™ Protease Inhibitors without EDTA.
(§1) Data are analyzed using four-parameter (curve maximum, curve minimum, IC₅₀, Hill slope) nonlinear regression routines (Genedata Screener, version 12.0.4, Genedata AG, Basal, Switzerland). […] Values for Kᵢ are reported as the geometric mean, with error expressed as the standard error of the mean (SEM) and n is equal to the number of independent replicates (determined in assays performed on different days). Geometric Means are calculated as follows: […]

A further assay addresses T2, human GIP receptor (human, UniProt P48546 22-466).
T2 construct: whole, on cells; also called hGIPR; human glucose-dependent insulinotropic polypeptide receptor
T2 sequence (looked up): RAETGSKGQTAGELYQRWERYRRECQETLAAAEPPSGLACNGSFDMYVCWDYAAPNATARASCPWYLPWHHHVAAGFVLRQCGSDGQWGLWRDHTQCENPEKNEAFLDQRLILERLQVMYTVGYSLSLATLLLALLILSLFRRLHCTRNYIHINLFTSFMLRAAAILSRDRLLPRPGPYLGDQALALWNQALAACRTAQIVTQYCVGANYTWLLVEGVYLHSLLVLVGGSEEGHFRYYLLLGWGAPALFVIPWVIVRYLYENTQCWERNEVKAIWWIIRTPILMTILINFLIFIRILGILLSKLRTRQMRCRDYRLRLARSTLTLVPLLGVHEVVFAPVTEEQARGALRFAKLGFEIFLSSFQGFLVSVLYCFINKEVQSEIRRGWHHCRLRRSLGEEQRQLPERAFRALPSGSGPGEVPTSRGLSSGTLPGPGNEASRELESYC
Briefly: SPA competition vs [125I]-GIP, hGIPR membranes. The procedure:
The binding buffer contains 25 mM HEPES, pH 7.4, 2.5 mM CaCl₂, 1 mM MgCl₂, 0.1% (w/v) bacitracin, 0.003% (w/v) TWEEN®-20, and Roche Complete™ Protease Inhibitors without EDTA. […] Plates are sealed and mixed on a plate shaker (setting 6) for 1 minute and read with a PerkinElmer Trilux MicroBeta® scintillation counter after 2.5 to 12 hours of incubation/settling time at room temperature.
as §1

B1: Y-Aib-EGT-αMeF-TSD-4Pal-SI-αMeL-LD-Orn-K((2-[2-(2-Amino-ethoxy)-ethoxy]-acetyl)2-(γ-Glu)-CO-(CH2)12-CO2H)AQ-Aib-EFI-(D-Glu)-αMeY-LIEGGK((2-[2-(2-Amino-ethoxy)-e … (peptide)
peptide: YXEGTXTSDXSIXLDXKAQXEFIXXLIEGGKSSGAPPPS
modifications: Aib2, αMeF6, 4Pal10, αMeL13, Orn16, K17(Z1), Aib20, D-Glu24, αMeY25, K31(Z1), C-term NH2; Z1=AEEA2-(γ-Glu)-CO-(CH2)12-CO2H
Take B1: the inhibitory constant (Ki) was 3.08 nM with human GLP-1 receptor and 0.0595 nM with human GIP receptor.

B2: Y-Aib-EGT-αMeF(2F)-TSD-4Pal-SI-αMeL-LD-Orn-K((2-[2-(2-Amino-ethoxy)-ethoxy]-acetyl)2-(γ-Glu)-CO-(CH2)12-CO2H)AQ-Aib-EFI-(D-Glu)-αMeY-LIEGGK((2-[2-(2-Amino-ethox … (peptide)
peptide: YXEGTXTSDXSIXLDXKAQXEFIXXLIEGGKSSGAPPPS
modifications: Aib2, αMeF(2F)6, 4Pal10, αMeL13, Orn16, K17(Z1), Aib20, D-Glu24, αMeY25, K31(Z1), C-term NH2; Z1=AEEA2-(γ-Glu)-CO-(CH2)12-CO2H
Turning to B2, the Ki amounted to 2.33 nM in the assay with human GLP-1 receptor and 0.088 nM with human GIP receptor.

B3: Y-Aib-EGT-αMeF(2F)-TSD-4Pal-SI-αMeL-LD-Orn-K((2-[2-(2-Amino-ethoxy)-ethoxy]-acetyl)2-(γ-Glu)-(10-(4-carboxyphenoxy)decanoyl))AQ-Aib-EFIK((2-[2-(2-Amino-ethoxy)- … (peptide)
peptide: YXEGTXTSDXSIXLDXKAQXEFIKXLIEGGPSSGAPPPS
modifications: Aib2, αMeF(2F)6, 4Pal10, αMeL13, Orn16, K17(Z1), Aib20, K24(Z1), αMeY25, C-term NH2; Z1=AEEA2-(γ-Glu)-(10-(4-carboxyphenoxy)decanoyl)
Consider B3, for which the Ki with human GLP-1 receptor was 0.777 nM; with human GIP receptor, 0.0314 nM.

B4: Y-Aib-EGT-αMeF-TSD-4Pal-SI-αMeF-LD-Orn-K((2-[2-(2-Amino-ethoxy)-ethoxy]-acetyl)2-(γ-Glu)-CO-(CH2)12-CO2H)AQ-Aib-EFI-(D-Glu)-αMeY-LIEGGK((2-[2-(2-Amino-ethoxy)-e … (peptide)
peptide: YXEGTXTSDXSIXLDXKAQXEFIXXLIEGGKSSGAPPPS
modifications: Aib2, αMeF6, 4Pal10, αMeF13, Orn16, K17(Z1), Aib20, D-Glu24, αMeY25, K31(Z1), C-term NH2; Z1=AEEA2-(γ-Glu)-CO-(CH2)12-CO2H
For the molecule B4, the inhibition constant Ki with human GLP-1 receptor came to 6.1 nM; with human GIP receptor, 0.0683 nM.

B5: Y-Aib-EGT-αMeF(2F)-TSD-4Pal-SK((2-[2-(2-Amino-ethoxy)-ethoxy]-acetyl)2-(γ-Glu)-CO-(CH2)12-CO2H)-αMeL-LD-Orn-K((2-[2-(2-Amino-ethoxy)-ethoxy]-acetyl)2-(γ-Glu)-CO … (peptide)
peptide: YXEGTXTSDXSKXLDXKAQXEFIXXLIEGGPSSGAPPPS
modifications: Aib2, αMeF(2F)6, 4Pal10, K12(Z1), αMeL13, Orn16, K17(Z1), Aib20, D-Glu24, αMeY25, C-term NH2; Z1=AEEA2-(γ-Glu)-CO-(CH2)12-CO2H
As to B5, the inhibition constant Ki is 3.01 nM in the assay with human GLP-1 receptor and 0.0972 nM with human GIP receptor.

B6: Y-Aib-EGT-αMeF(2F)-TSD-4Pal-SI-αMeL-LD-Orn-K((2-[2-(2-Amino-ethoxy)-ethoxy]-acetyl)2-(γ-Glu)-CO-(CH2)12-CO2H)AQ-Aib-EFI-(D-Glu)-αMeY-LIEGK((2-[2-(2-Amino-ethoxy … (peptide)
peptide: YXEGTXTSDXSIXLDXKAQXEFIXXLIEGKPSSGAPPPS
modifications: Aib2, αMeF(2F)6, 4Pal10, αMeL13, Orn16, K17(Z1), Aib20, D-Glu24, αMeY25, K30(Z1), C-term NH2; Z1=AEEA2-(γ-Glu)-CO-(CH2)12-CO2H
B6: the inhibition constant Ki in the assay with human GLP-1 receptor is 8.41 nM; with human GIP receptor it was 0.0769 nM.

B7: Y-Aib-EGT-αMeF(2F)-TSD-4Pal-SI-αMeL-LD-Orn-K((2-[2-(2-Amino-ethoxy)-ethoxy]-acetyl)2-(γ-Glu)-CO-(CH2)12-CO2H)AQ-Aib-K((2-[2-(2-Amino-ethoxy)-ethoxy]-acetyl)2-(γ … (peptide)
peptide: YXEGTXTSDXSIXLDXKAQXKFIXXLIEGGPSSGAPPPS
modifications: Aib2, αMeF(2F)6, 4Pal10, αMeL13, Orn16, K17(Z1), Aib20, K21(Z1), D-Glu24, αMeY25, C-term NH2; Z1=AEEA2-(γ-Glu)-CO-(CH2)12-CO2H
Consider B7, for which the values for the inhibitory constant (Ki) with human GLP-1 receptor and with human GIP receptor were 2.11 nM and 0.0629 nM, respectively.

B8: Y-Aib-EGT-αMeF(2F)-TSD-4Pal-SI-αMeL-LD-Orn-K((2-[2-(2-Amino-ethoxy)-ethoxy]-acetyl)2-(γ-Glu)-CO-(CH2)12-CO2H)AQ-Aib-EFI-(D-Glu)-αMeY-LIK((2-[2-(2-Amino-ethoxy)- … (peptide)
peptide: YXEGTXTSDXSIXLDXKAQXEFIXXLIKGGPSSGAPPPS
modifications: Aib2, αMeF(2F)6, 4Pal10, αMeL13, Orn16, K17(Z1), Aib20, D-Glu24, αMeY25, K28(Z1), C-term NH2; Z1=AEEA2-(γ-Glu)-CO-(CH2)12-CO2H
Regarding B8, the Ki turned out to be 3.18 nM with human GLP-1 receptor and 0.0649 nM with human GIP receptor.

B9: Y-Aib-EGT-αMeF(2F)-TSD-4Pal-SI-αMeL-LD-Orn-K((2-[2-(2-Amino-ethoxy)-ethoxy]-acetyl)2-(γ-Glu)-CO-(CH2)10-CH3)AQ-Aib-EFI-(D-Glu)-αMeY-LIK((2-[2-(2-Amino-ethoxy)-e … (peptide)
peptide: YXEGTXTSDXSIXLDXKAQXEFIXXLIKGGPSSGAPPPS
modifications: Aib2, αMeF(2F)6, 4Pal10, αMeL13, Orn16, K17(Z1), Aib20, D-Glu24, αMeY25, K28(Z1), C-term NH2; Z1=AEEA2-(γ-Glu)-CO-(CH2)10-CH3
B9: the inhibitory constant (Ki) stood at 0.268 nM with human GLP-1 receptor and 0.0415 nM with human GIP receptor.

B10: Y-Aib-EGT-αMeF(2F)-TSD-4Pal-SI-αMeL-LD-Orn-K((2-[2-(2-Amino-ethoxy)-ethoxy]-acetyl)2-(γ-Glu)-CO-(CH2)12-CO2H)AQ-Aib-EFI-(D-Glu)-αMeY-LIEGGP S SGAPPP … (peptide)
peptide: YXEGTXTSDXSIXLDXKAQXEFIXXLIEGGPSSGAPPPSK
modifications: Aib2, αMeF(2F)6, 4Pal10, αMeL13, Orn16, K17(Z1), Aib20, D-Glu24, αMeY25, K40(Z1), C-term NH2; Z1=AEEA2-(γ-Glu)-CO-(CH2)12-CO2H
In the case of B10, the inhibition constant Ki with human GLP-1 receptor is 3.13 nM; in the assay with human GIP receptor, 0.0807 nM.

B11: Y-Aib-EGT-αMeF(2F)-TSD-4Pal-Aib-I-αMeL-LD-Orn-QAQ-Aib-K((2-[2-(2-Amino-ethoxy)-ethoxy]-acetyl)2-(γ-Glu)-CO-(CH2)12-CO2H)FI-(D-Glu)-αMeY-LIEGGPSSGAPPPSK((2-[2-(2 … (peptide)
peptide: YXEGTXTSDXXIXLDXQAQXKFIXXLIEGGPSSGAPPPSK
modifications: Aib2, αMeF(2F)6, 4Pal10, Aib11, αMeL13, Orn16, Aib20, K21(Z1), D-Glu24, αMeY25, K40(Z1), C-term NH2; Z1=AEEA2-(γ-Glu)-CO-(CH2)12-CO2H
On to B11, for which the Ki amounted to 0.947 nM with human GLP-1 receptor and 0.0912 nM with human GIP receptor.

B12: Y-Aib-EGT-αMeF(2F)-TSDV-Aib-I-αMeL-LD-Orn-K((2-[2-(2-Amino-ethoxy)-ethoxy]-acetyl)2-(γ-Glu)-CO-(CH2)12-CO2H)AQ-Aib-EFI-(D-Glu)-αMeY-LIEGGK((2-[2-(2-Amino-ethoxy … (peptide)
peptide: Y[Aib]EGT[αMePhe(2-F)]TSDV[Aib]I[αMeL]LD[Orn]K([AEEA-AEEA-γGlu-C14 diacid])AQ[Aib]EFI[dE][αMeY]LIEGGK([AEEA-AEEA-γGlu-C14 diacid])SSGAPPPS-NH2
modifications: N-terminus assumed
SMILES: CC[C@H](C)[C@H](NC(=O)[C@H](CC(C)C)NC(=O)[C@](C)(Cc1ccc(O)cc1)NC(=O)[C@@H](CCC(=O)O)NC(=O)[C@@H](NC(=O)[C@H](Cc1ccccc1)NC(=O)[C@H](CCC(=O)O)NC(=O)C(C)(C)NC(=O)[C@H](CCC(N)=O)NC(=O)[C@H](C)NC(=O)[C@H](CCCCNC(=O)COCCOCCNC(=O)COCCOCCNC(=O)CC[C@H](NC(=O)CCCCCCCCCCCCC(=O)O)C(=O)O)NC(=O)[C@H](CCCN)NC(=O)[C@H](CC(=O)O)NC(=O)[C@H](CC(C)C)NC(=O)[C@](C)(CC(C)C)NC(=O)[C@@H](NC(=O)C(C)(C)NC(=O)[C@@H](NC(=O)[C@H](CC(=O)O)NC(=O)[C@H](CO)NC(=O)[C@@H](NC(=O)[C@](C)(Cc1ccccc1F)NC(=O)[C@@H](NC(=O)CNC(=O)[C@H](CCC(=O)O)NC(=O)C(C)(C)NC(=O)[C@@H](N)Cc1ccc(O)cc1)[C@@H](C)O)[C@@H](C)O)C(C)C)[C@@H](C)CC)[C@@H](C)CC)C(=O)N[C@@H](CCC(=O)O)C(=O)NCC(=O)NCC(=O)N[C@@H](CCCCNC(=O)COCCOCCNC(=O)COCCOCCNC(=O)CC[C@H](NC(=O)CCCCCCCCCCCCC(=O)O)C(=O)O)C(=O)N[C@@H](CO)C(=O)N[C@@H](CO)C(=O)NCC(=O)N[C@@H](C)C(=O)N1CCC[C@H]1C(=O)N1CCC[C@H]1C(=O)N1CCC[C@H]1C(=O)N[C@@H](CO)C(N)=O
For the molecule B12, the Ki with human GLP-1 receptor came to 1.26 nM; with human GIP receptor, 0.126 nM.

B13: Y-Aib-EGT-αMeF(2F)-TSDV-αMeS-I-αMeL-LD-Orn-K((2-[2-(2-Amino-ethoxy)-ethoxy]-acetyl)2-(γ-Glu)-CO-(CH2)12-CO2H)AQ-Aib-EFI-(D-Glu)-αMeY-LIEGGK((2-[2-(2-Amino-ethox … (peptide)
peptide: YXEGTXTSDVXIXLDXKAQXEFIXXLIEGGKSSGAPPPS
modifications: Aib2, αMeF(2F)6, αMeS11, αMeL13, Orn16, K17(Z1), Aib20, D-Glu24, αMeY25, K31(Z1), C-term NH2; Z1=AEEA2-(γ-Glu)-CO-(CH2)12-CO2H
For the molecule B13, the inhibition constant Ki in the assay with human GLP-1 receptor is 1.17 nM; with human GIP receptor, 0.161 nM.

In general, Ki refers to a measure of affinity in units of concentration, obtained from inhibition or displacement. Low readings indicate a stronger hold on the target, high ones a looser hold on the target.
